# Source: patent US20040242851A1 (published 2004)
# Experiments:
# [1] = biological target: T1, Flt-1-Fc fusion protein (UniProt P17948 27-756, limits assumed); test: blocking ELISA: antibody pre-mixed with Flt-1-Fc, transferred to immobilized PlGF; plate-bound Flt-1-Fc detected with anti-human Fc-HRP, A450
# T1 construct: Bought from R&D Systems; also called immobilized Flt-1; not shown: Fc
# Protocol: The assays followed previously described protocols (Zhu, Z. et al., 1998; Lu, D. et al., 1999). Briefly, various amounts of the diabody or scFv were mixed with a fixed amount of KDR-AP (100 ng) or Flt-1-Fc fusion protein (50 ng) and incubated at RT for 1 h. The mixture were then transferred to 96-well microtiter plates precoated with VEGF₁₆₅ (200 ng/well) or PlGF (200 ng/well) and incubated at RT for an additional 2 h, after which the plates were washed 5 times with PBS. For the KDR-AP assay, the substrate for AP was added, followed by reading of the absorbance at 405 nm to quantify the plate-bound KDR-AP. For the Flt-1-Fc assay, the plate was incubated with a mouse anti-human Fc-HRP conjugate to quantify the plate-bound Flt-1-Fc.
# [2] = biological target: T1, Flt-1-Fc fusion protein; test: BIAcore SPR, Flt-1-Fc immobilized on the chip, antibody injected
# Protocol: (§1) The binding kinetics of the diabody and its parent scFv to KDR and Flt-1 were measured using a BIAcore biosensor (Pharmacia Biosensor). KDR-AP or Flt-1-Fc fusion protein was immobilized onto a sensor chip and soluble antibodies were injected at concentrations ranging from 1.5 nM to 100 nM. Sensorgrams were obtained at each concentration and were analyzed with, BIA Evaluation 2.0, a program to determine the rate constants kon and koff. The affinity constant, Kd, was calculated from the ratio of rate constants koff/kon.
# [3] = biological target: T1, Flt-1-Fc fusion protein; test: direct binding ELISA on immobilized Flt-1, detection with anti-E tag antibody-HRP, A450
# Protocol: (§2) Two assays were carried out to determine the dual antigen binding capability of the diabody. First, a cross-linking assay was used to investigate whether the diabody is capable of binding both of its target antigens simultaneously. Briefly, the diabody or its parent scFv were first incubated in a 96-well Maxi-sorp microtiter plate (Nunc, Roskilde, Denmark) precoated with Flt-1-Fc fusion protein (1 μg/ml×[…] per well overnight at 4° C.) at room temperature (RT) for 1 h. The plate was washed three times with PBS containing 0.1% Tween (PBST), followed by incubation with KDR-AP fusion protein at RT for additional 1 h. The plate-bound KDR-AP was then quantified by the addition of AP substrate, p-nitrophenyl phosphate (Sigma, St. Louis, Mo.), followed by reading of the absorbance at 405 nm (Lu, D. et al., 1999). In the second, direct binding assay, various amounts of diabody or scFv were added to KDR or Flt-1 coated 96-well plates and incubated at RT for 1 h, after which the plates were washed 3 times with PBST. The plates were then incubated at RT for 1 h with 100 μl of an anti-E tag antibody-HRP conjugate (Amersham Pharmacia Biotech). The plates were washed, peroxidase substrate added, and the absorbance at 450 nm read following the procedure described previously (Lu, D. et al., 1999).
# (§3) The antigen binding efficiency of the diabody was determined on immobilized KDR and Flt-1. […]
# [4] = biological target: T2, soluble fusion protein KDR-alkaline phosphatase (AP) (human, UniProt P35968 20-764); test: direct binding ELISA on immobilized KDR, detection with anti-E tag antibody-HRP, A450
# T2 construct: Expressed in stably transfected NIH 3T3 cells; also called KDR-AP; soluble KDR; not shown: alkaline phosphatase (AP)
# T2 sequence (P35968 20-764): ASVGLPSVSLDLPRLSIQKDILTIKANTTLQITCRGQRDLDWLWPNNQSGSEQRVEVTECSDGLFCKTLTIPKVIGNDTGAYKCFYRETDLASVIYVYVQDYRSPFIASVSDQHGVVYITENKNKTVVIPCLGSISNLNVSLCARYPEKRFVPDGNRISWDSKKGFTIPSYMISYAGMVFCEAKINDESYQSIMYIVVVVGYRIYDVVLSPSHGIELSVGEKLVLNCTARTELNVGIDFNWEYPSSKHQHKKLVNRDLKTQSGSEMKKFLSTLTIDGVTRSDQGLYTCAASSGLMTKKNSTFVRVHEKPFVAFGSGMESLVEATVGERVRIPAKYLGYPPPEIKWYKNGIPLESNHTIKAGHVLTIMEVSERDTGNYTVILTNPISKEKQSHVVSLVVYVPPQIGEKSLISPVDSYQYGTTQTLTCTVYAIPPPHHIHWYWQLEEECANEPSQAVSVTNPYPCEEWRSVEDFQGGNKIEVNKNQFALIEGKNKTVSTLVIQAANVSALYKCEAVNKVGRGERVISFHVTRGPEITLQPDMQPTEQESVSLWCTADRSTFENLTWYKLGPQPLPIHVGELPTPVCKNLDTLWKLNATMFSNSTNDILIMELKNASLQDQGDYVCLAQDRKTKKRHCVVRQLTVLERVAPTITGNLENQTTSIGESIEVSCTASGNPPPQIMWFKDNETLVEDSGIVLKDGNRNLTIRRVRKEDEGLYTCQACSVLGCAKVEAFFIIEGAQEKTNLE
# Protocol: as §2, §3
# [5] = biological target: KDR on human umbilical vein endothelial cells (HUVEC) (human, UniProt P35968 20-1356); test: cell-based or functional assay
# Sequence of KDR on human umbilical vein endothelial cells (HUVEC) (P35968 20-1356): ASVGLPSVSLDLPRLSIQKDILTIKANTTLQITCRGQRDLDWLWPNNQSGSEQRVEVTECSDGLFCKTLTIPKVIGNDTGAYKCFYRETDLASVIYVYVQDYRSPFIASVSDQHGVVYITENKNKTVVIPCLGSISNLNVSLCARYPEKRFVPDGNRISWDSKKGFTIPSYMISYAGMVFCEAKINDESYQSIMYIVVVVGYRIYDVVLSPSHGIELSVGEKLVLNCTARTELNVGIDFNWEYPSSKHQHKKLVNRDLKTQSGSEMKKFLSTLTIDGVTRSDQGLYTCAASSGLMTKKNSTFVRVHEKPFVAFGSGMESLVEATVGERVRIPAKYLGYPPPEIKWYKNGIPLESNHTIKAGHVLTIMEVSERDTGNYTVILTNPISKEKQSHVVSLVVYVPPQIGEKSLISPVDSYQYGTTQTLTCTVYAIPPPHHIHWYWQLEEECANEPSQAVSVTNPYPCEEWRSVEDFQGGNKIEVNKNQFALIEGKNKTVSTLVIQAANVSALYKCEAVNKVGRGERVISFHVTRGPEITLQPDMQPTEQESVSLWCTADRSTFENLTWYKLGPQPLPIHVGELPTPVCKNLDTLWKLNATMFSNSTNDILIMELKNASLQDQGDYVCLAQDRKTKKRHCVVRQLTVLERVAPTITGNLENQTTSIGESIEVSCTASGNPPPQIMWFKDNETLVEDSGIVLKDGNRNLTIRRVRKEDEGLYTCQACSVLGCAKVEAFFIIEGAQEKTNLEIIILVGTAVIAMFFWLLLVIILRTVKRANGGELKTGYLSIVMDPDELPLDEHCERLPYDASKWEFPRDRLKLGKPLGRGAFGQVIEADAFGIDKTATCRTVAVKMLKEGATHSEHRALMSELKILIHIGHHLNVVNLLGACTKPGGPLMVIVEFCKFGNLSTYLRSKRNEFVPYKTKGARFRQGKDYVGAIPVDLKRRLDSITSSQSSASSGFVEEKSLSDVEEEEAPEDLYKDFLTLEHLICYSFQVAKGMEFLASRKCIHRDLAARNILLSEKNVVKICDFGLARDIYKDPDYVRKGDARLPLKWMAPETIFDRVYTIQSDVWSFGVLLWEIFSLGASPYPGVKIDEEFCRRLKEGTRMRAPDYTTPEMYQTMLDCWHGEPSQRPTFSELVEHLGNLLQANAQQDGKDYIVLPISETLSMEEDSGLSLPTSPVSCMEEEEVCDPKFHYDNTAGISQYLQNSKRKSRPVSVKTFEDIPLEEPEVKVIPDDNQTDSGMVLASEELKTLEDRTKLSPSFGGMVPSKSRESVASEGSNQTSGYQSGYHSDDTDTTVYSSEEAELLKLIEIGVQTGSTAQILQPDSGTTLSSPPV
# [6] = biological target: T2, soluble fusion protein KDR-alkaline …; test: BIAcore SPR, KDR-AP immobilized on the chip, antibody injected
# Protocol: as §1
# T1 sequence (P17948 27-756 limits assumed): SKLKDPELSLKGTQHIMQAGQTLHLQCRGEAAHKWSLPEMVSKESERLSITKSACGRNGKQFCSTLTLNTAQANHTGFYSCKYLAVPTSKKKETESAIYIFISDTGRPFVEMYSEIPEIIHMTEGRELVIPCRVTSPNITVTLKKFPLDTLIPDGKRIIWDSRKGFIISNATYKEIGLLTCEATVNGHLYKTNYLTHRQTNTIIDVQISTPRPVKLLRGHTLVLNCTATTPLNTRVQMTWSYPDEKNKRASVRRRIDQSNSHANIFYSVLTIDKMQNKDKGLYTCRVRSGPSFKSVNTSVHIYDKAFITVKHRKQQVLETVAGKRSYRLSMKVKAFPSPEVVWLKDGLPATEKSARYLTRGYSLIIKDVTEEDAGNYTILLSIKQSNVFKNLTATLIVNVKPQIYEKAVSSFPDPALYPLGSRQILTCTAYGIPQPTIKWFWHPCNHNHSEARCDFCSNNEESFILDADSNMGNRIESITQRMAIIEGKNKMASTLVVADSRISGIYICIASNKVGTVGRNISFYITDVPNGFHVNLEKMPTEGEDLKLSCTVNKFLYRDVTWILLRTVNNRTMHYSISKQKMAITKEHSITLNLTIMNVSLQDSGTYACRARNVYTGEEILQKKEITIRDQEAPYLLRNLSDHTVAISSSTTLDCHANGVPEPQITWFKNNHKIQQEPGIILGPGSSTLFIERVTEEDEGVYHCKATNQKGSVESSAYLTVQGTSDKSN
IC50 (read off the curve) [1] [nM],Kd [2] [nM],koff [2] [s⁻¹],kon [2] [M⁻¹ s⁻¹],EC50 (read off the curve) [3] [nM],EC50 (read off the curve) [4] [nM],"VEGF-stimulated HUVEC mitogenesis ([3H]-TdR incorporation), IC50 [5] [nM]",binding result [3],Kd [6] [nM],koff [6] [s⁻¹],kon [6] [M⁻¹ s⁻¹],Binder
~1,9.8,0.00236,241000,~0.6,–,–,–,–,–,–,"scFv 6.12 (scFv, not shown: small tags and cut ends, The soluble scFv from pCANTAB 5E carried a C-terminal E tag (detected with anti-E tag) whose letters the patent does not give; it is left out., VH-(GGGGS)3-VL, expressed from pCANTAB 5E in E. coli) scFv: QVKLQQSGAELVKPGASVKLSCTASGFNIKDTYIHWVKQSPEQGLEWIGRIDPPNDNTKYDPKFQGKATITADTSSNTAYMQLRSLTSEDTAVYYCALPPFYFDYWGHGTTVTVSSGGGGSGGGGSGGGGSDIELTQSPKFMSTSVGDRVSVTCKASQNVDTNVAWYQQKPGQSPKALIYSASYRYSGVPDRFTGSGSGTDFTLTISNVQSEDLAEYFCQQYNSFPYTFGGGTKLEIK"
–,–,–,–,–,~0.4,~2,no binding (tested: about 50 nM),1.68,0.000121,74200,"scFv p1C11 (scFv, soluble form made in E. coli; also called KDR-specific scFv p1C11) scFv: QVKLQQSGAELVGSGASVKLSCTTSGFNIKDFYMHWVKQRPEQGLEWIGWIDPENGDSDYAPKFQGKATMTADSSSNTAYLQLSSLTSEDTAVYYCNAYYGDYEGYWGQGTTVTVSSGGGGSGGGGSGGGGSDIELTQSPAIMSASPGEKVTITCSASSSVSYMHWFQQKPGTSPKLWIYSTSNLASGVPARFSGSGSGTSYSLTISRMEAEDAATYYCQQRSSYPFTFGSGTKLEIK"
